Patent US10583184B2, “Artificial antigen produced using partial sequence of enolase protein originated from plasmodium falciparum, and method for producing same” (priority 2014, dated 2020)
“Also recorded” adds a separate entry of the source.

Legend:
plasminogen [1] = target: T1, plasminogen (Homo sapiens, UniProt P00747); test: Reactivity of peptide library with plasminogen, Dot-Blot method; format: binding; settings: peptide immobilized on nitrocellulose film; HRP-labeled anti-plasminogen antibody; DAB staining
T1 sequence (P00747 20-810 limits assumed): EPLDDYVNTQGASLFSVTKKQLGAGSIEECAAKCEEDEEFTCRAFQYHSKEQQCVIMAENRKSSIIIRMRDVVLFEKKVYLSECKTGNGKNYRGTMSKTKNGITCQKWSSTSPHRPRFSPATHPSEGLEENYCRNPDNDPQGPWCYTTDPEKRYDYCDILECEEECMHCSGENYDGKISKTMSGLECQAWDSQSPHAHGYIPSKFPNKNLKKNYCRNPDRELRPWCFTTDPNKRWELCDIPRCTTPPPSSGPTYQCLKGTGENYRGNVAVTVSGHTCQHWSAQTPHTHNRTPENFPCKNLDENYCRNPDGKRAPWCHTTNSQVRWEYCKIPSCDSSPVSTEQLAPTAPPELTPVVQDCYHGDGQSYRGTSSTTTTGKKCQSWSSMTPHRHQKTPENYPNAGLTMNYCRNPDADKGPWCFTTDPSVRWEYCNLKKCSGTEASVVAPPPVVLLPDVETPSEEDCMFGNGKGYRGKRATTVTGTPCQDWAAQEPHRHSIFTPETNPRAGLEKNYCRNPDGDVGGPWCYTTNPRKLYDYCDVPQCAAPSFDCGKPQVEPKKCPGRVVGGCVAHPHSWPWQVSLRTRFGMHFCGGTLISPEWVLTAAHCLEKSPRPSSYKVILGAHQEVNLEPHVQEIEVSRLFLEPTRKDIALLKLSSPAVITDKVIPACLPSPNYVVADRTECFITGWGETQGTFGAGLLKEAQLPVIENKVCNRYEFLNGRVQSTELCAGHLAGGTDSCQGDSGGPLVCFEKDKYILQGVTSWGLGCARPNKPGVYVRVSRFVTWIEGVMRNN
Text: FIG. 11 is a photograph after staining with DAB reagent in a Dot-Blot measurement, for detecting the binding between each of the peptide 1 to peptide 8 and plasminogen. The numbers 1 to 8 in FIG. 11 indicate the locations at which peptide solutions of the peptide 1 to peptide 8 were dropped, respectively, and P indicates the locations at which plasminogen solutions (positive control) were dropped.
(§1) A peptide library of peptides 1 to 8 (SEQ ID NOs: 10 to 17), which are divided peptides obtained from a 35-residue sequence of 254th to 288th residues (FIG. 2) of the amino acid sequence of the parasite enolase, was used. Each of the peptides of the peptide library was allowed to react with plasminogen using a Dot-Blot method and an ELISA method, thereby carrying out a search for an amino acid sequence recognized by plasminogen.
The reactivity of the peptides was measured by a Dot-Blot method, using a 10% acetonitrile solution of each of 8 types of peptides, peptide 1 to peptide 8, by the following steps in the following order; (a) immobilization of each peptide on a nitrocellulose film (pore size: 0.45 μm); (b) reaction with plasminogen in a plasminogen solution; (c) reaction with an HRP-labeled anti-plasminogen antibody; and (d) DAB staining.

plasminogen [2] = target: T1, plasminogen; test: Reactivity of peptide library with plasminogen, ELISA method; format: binding; settings: peptide immobilized in wells; plasminogen 1 μg/well; HRP modified anti-plasminogen antibody, TMB staining
Protocol: FIG. 12 is a photograph of a plate after staining with TMB reagent in an ELISA measurement, for detecting the binding between each of the peptide 1 to peptide 8 and plasminogen. Each of the peptide 1 to peptide 8 was immobilized in each of the wells of the plate, and then allowed to react with plasminogen. Detection of binding was carried out by staining with an HRP modified-anti-plasminogen antibody and TMB reagent.
FIG. 13 is a graph of absorbance data (at 450 nm) taken after staining with TMB in an ELISA measurement, for detecting the binding between each of the peptide 1 to peptide 8 and plasminogen (plasminogen concentration: 1 μg/well).
as §1
Next, in order to digitize and quantify the reaction of the peptide library with plasminogen, the detection of binding by an ELISA method was carried out.

P. falciparum = test: Vaccine trial in owl monkeys; format: in vivo; settings: 13 owl monkeys, vaccinated
Protocol: Subsequently, a vaccine trial was carried out using as antigens enolase derived from P. falciparum and an AD22 partial sequence peptide, and using 13 owl monkeys. The changes in the percentage of parasitism of P. falciparum in red blood cells in the peripheral blood of the owl monkeys were plotted.
The antigen which causes owl monkeys to acquire immunity is a chemically synthesized peptide antigen having a tandem structure in which four 22-residue peptides (AD22) are tandemly arranged, and has a structure represented by the following Structural Formula (A). Although Xaa in the Structural Formula (A) of the antigen is arbitrary, a Cys(Acm) residue, which is a Cys residue whose side chain is protected by an acetamidomethyl group, is used at this time.

2: divided peptide from the 254th to 288th residue sequence of parasite enolase; SEQ ID NO: 11 (FYNSENKTYDK; listed as Plasmodium falciparum) [compound 2]
binding of peptide chains with plasminogen (plasminogen [1]): binding of peptide chains with plasminogen was observed

peptide 3: 10-residue divided peptide of parasite enolase, NKT sequence then YDLDFKT sequence; SEQ ID NO: 12 (NKTYDLDFKTK; listed as Plasmodium falciparum)
reactivity with plasminogen (absorbance at 450 nm) (plasminogen [2]): relatively high reactivity with plasminogen; also recorded: highest reactivity with plasminogen, among the 10-residue peptides
binding of peptide chains with plasminogen (plasminogen [1]): binding of peptide chains with plasminogen was observed

peptide 7: 25-residue peptide sequence from the 254th to 288th residues of parasite enolase; SEQ ID NO: 16 (VAASEFYNSENKTYDLDFKTPNNDK; listed as Plasmodium falciparum)
reactivity with plasminogen (absorbance at 450 nm) (plasminogen [2]): high reactivity with plasminogen
binding of peptide chains with plasminogen (plasminogen [1]): binding of peptide chains with plasminogen was observed

5: 10-residue divided peptide from the 254th to 288th residue sequence of parasite enolase; SEQ ID NO: 14 (PNNDKSLVKTK; listed as Plasmodium falciparum) [compound 5]
reactivity with plasminogen (absorbance at 450 nm) (plasminogen [2]): relatively high reactivity with plasminogen

peptide 8: 35-residue peptide sequence, 254th to 288th residues of parasite enolase; SEQ ID NO: 17 (VAASEFYNSENKTYDLDFKTPNNDKSLVKTGAQLVK; listed as Plasmodium falciparum)
reactivity with plasminogen (absorbance at 450 nm) (plasminogen [2]): high reactivity with plasminogen
binding of peptide chains with plasminogen (plasminogen [1]): binding of peptide chains with plasminogen was observed

B1: enolase derived from P. falciparum: P. falciparum-derived enolase, a glycolytic enzyme, used as vaccine antigen (protein, UniProt Q8IJN7 1-446, looked up)
Enolase: MAHVITRINAREILDSRGNPTVEVDLETNLGIFRAAVPSGASTGIYEALELRDNDKSRYLGKGVQKAIKNINEIIAPKLIGMNCTEQKKIDNLMVEELDGSKNEWGWSKSKLGANAILAISMAVCRAGAAANKVSLYKYLAQLAGKKSDQMVLPVPCLNVINGGSHAGNKLSFQEFMIVPVGAPSFKEALRYGAEVYHTLKSEIKKKYGIDATNVGDEGGFAPNILNANEALDLLVTAIKSAGYEGKVKIAMDVAASEFYNSENKTYDLDFKTPNNDKSLVKTGAQLVDLYIDLVKKYPIVSIEDPFDQDDWENYAKLTAAIGKDVQIVGDDLLVTNPTRITKALEKNACNALLLKVNQIGSITEAIEACLLSQKNNWGVMVSHRSGETEDVFIADLVVALRTGQIKTGAPCRSERNAKYNQLLRIEESLGNNAVFAGEKFRLQLN
percentage of parasitism of P. falciparum in red blood cells in the peripheral blood (P. falciparum): a rapid increase in the percentage of parasitism was in inhibited
